# Source: patent US20200199241A1 (Chugai, published 2020)
# Residue numbers refer to the chain shown, from its start.
# B1: IgG1-F872 (antibody)
# heavy: QVQLQESGPGLVKPSETLSLTCAVSGHSISHDHAWSWVRQPPGEGLEWIGFISYSGITNYNPSLQGRVTISRDNSKNTLYLQMNSLRAEDTAVYYCARSLARTTAMDYWGEGTLVTVSSASTKGPSVFPLAPSSKSTSGGTAALGCLVKDYFPEPVTVSWNSGALTSGVHTFPAVLQSSGLYSLSSVVTVPSSSLGTQTYICNVNHKPSNTKVDKKVEPKSCDKTHTCPPCPAPELKGGPKVFLFPPKPKDTLYISRTPEVTCVVVDVSHEDPEVKFNWYVDGVEVHEAKTKPREEQYNSTYRVVSVLTVLHQDWLNGKEYKCKVSNKALPAPIEKTISKAKGQPREPQVYTLPPSRDELTKNQVSLTCLVKGFYPSDIAVEWESNGQPENNYKTTPPVLDSDGSFFLYSKLTVDKSRWQQGNVFSCSVMHEALHYHYTQKSLSLSP
# light: not shown
# notes: EU numbering; copies: 2 + 2
# B2: IgG1-F912 (antibody)
# heavy: B1 heavy with K237L, K241S, E288N, N317D, G318S
# light: not shown
# notes: EU numbering; copies: 2 + 2
# B3: IgG1-F897 (antibody)
# heavy: B1 heavy with K237L, K241S, E288N, N317D, N386A, N391A
# light: not shown
# notes: EU numbering; copies: 2 + 2
# B4: IgG1-F879 (antibody)
# heavy: B1 heavy with K237L, K241S, E288N, Y438G
# light: not shown
# notes: EU numbering; copies: 2 + 2
# B5: IgG1-F889 (antibody)
# heavy: B1 heavy with K237L, K241S, E288N, Y438T
# light: not shown
# notes: EU numbering; copies: 2 + 2
# B6: IgG1-F913 (antibody)
# heavy: B1 heavy with K237L, K241S, E288N, N317D, G318T
# light: not shown
# notes: EU numbering; copies: 2 + 2
# B7: IgG1-F906 (antibody)
# heavy: B1 heavy with K237L, K241S, E288N, N317D, G318L
# light: not shown
# notes: EU numbering; copies: 2 + 2
# B8: IgG1-F895 (antibody)
# heavy: B1 heavy with T309Q, Q313A, N317E
# light: not shown
# notes: EU numbering; copies: 2 + 2
# B9: IgG1-F915 (antibody)
# heavy: B1 heavy with K237L, K241S, E288N, N317D, G318W
# light: not shown
# notes: EU numbering; copies: 2 + 2
# B10: IgG1-F893 (antibody)
# heavy: B1 heavy with E288N, Y438I
# light: not shown
# notes: EU numbering; copies: 2 + 2
# B11: IgG1-F882 (antibody)
# heavy: B1 heavy with K237L, K241S, E288N, Y438L
# light: not shown
# notes: EU numbering; copies: 2 + 2
# B12: IgG1-F899 (antibody)
# heavy: B1 heavy with K237L, K241S, E288N, N317D, G318A
# light: not shown
# notes: EU numbering; copies: 2 + 2
# B13: IgG1-F908 (antibody)
# heavy: B1 heavy with K237L, K241S, E288N, N317D, G318N
# light: not shown
# notes: EU numbering; copies: 2 + 2
# B14: IgG1-F884 (antibody)
# heavy: B1 heavy with K237L, K241S, E288N, Y438N
# light: not shown
# notes: EU numbering; copies: 2 + 2
# B15: IgG1-F880 (antibody)
# heavy: B1 heavy with K237L, K241S, E288N, Y438H
# light: not shown
# notes: EU numbering; copies: 2 + 2
# B16: IgG1-F910 (antibody)
# heavy: B1 heavy with K237L, K241S, E288N, N317D, G318Q
# light: not shown
# notes: EU numbering; copies: 2 + 2
# B17: IgG1-F920 (antibody)
# heavy: B1 heavy with K237L, K241S, E288S, N386A, N391A
# light: not shown
# notes: EU numbering; copies: 2 + 2
# B18: IgG1-F896 (antibody)
# heavy: B1 heavy with K237R, T309Q, Q313A, N317E
# light: not shown
# notes: EU numbering; copies: 2 + 2
# B19: IgG1-F905 (antibody)
# heavy: B1 heavy with K237L, K241S, E288N, N317D, G318K
# light: not shown
# notes: EU numbering; copies: 2 + 2
# B20: IgG1-F903 (antibody)
# heavy: B1 heavy with K237L, K241S, E288N, N317D, G318H
# light: not shown
# notes: EU numbering; copies: 2 + 2
# B21: IgG1-F914 (antibody)
# heavy: B1 heavy with K237L, K241S, E288N, N317D, G318V
# light: not shown
# notes: EU numbering; copies: 2 + 2
# B22: IgG1-F918 (antibody)
# heavy: B1 heavy with K237L, K241S, D282E, E288N, N386A, N391A
# light: not shown
# notes: EU numbering; copies: 2 + 2
# B23: IgG1-F902 (antibody)
# heavy: B1 heavy with K237L, K241S, E288N, N317D, G318F
# light: not shown
# notes: EU numbering; copies: 2 + 2
# B24: IgG1-F875 (antibody)
# heavy: B1 heavy with K237L, K241S, E288N, Y438A
# light: not shown
# notes: EU numbering; copies: 2 + 2
# B25: IgG1-F873 (antibody)
# heavy: B1 heavy with K237R
# light: not shown
# notes: EU numbering; copies: 2 + 2
# B26: IgG1-F898 (antibody)
# heavy: B1 heavy with K237L, K241S, E288N, N317E, N386A, N391A
# light: not shown
# notes: EU numbering; also called E898; copies: 2 + 2
# B27: IgG1-F909 (antibody)
# heavy: B1 heavy with K237L, K241S, E288N, N317D, G318P
# light: not shown
# notes: EU numbering; copies: 2 + 2
# B28: IgG1-F894 (antibody)
# heavy: B1 heavy with K237R, E288N, Y438I
# light: not shown
# notes: EU numbering; copies: 2 + 2
# B29: IgG1-F921 (antibody)
# heavy: B1 heavy with K237L, K241S, N386A, N391A
# light: not shown
# notes: EU numbering; copies: 2 + 2
# B30: IgG1-F888 (antibody)
# heavy: B1 heavy with K237L, K241S, E288N, Y438S
# light: not shown
# notes: EU numbering; copies: 2 + 2
# B31: IgG1-F901 (antibody)
# heavy: B1 heavy with K237L, K241S, E288N, N317D, G318E
# light: not shown
# notes: EU numbering; copies: 2 + 2
# B32: IgG1-F883 (antibody)
# heavy: B1 heavy with K237L, K241S, E288N, Y438M
# light: not shown
# notes: EU numbering; copies: 2 + 2
# B33: IgG1-F878 (antibody)
# heavy: B1 heavy with K237L, K241S, E288N, Y438F
# light: not shown
# notes: EU numbering; copies: 2 + 2
# B34: IgG1-F917 (antibody)
# heavy: B1 heavy with K237L, K241S, E288S
# light: not shown
# notes: EU numbering; copies: 2 + 2
# B35: IgG1-F892 (antibody)
# heavy: B1 heavy with K237L, K241S, S256T, E288N, Y438I
# light: not shown
# notes: EU numbering; copies: 2 + 2
# B36: IgG1-F881 (antibody)
# heavy: B1 heavy with K237L, K241S, E288N, Y438K
# light: not shown
# notes: EU numbering; copies: 2 + 2
# B37: IgG1-F911 (antibody)
# heavy: B1 heavy with K237L, K241S, E288N, N317D, G318R
# light: not shown
# notes: EU numbering; copies: 2 + 2
# B38: IgG1-F900 (antibody)
# heavy: B1 heavy with K237L, K241S, E288N, N317D, G318D
# light: not shown
# notes: EU numbering; copies: 2 + 2
# B39: IgG1-F891 (antibody)
# heavy: B1 heavy with K237L, K241S, E288N, Y438W
# light: not shown
# notes: EU numbering; copies: 2 + 2
# B40: IgG1-F907 (antibody)
# heavy: B1 heavy with K237L, K241S, E288N, N317D, G318M
# light: not shown
# notes: EU numbering; copies: 2 + 2
# B41: IgG1-F877 (antibody)
# heavy: B1 heavy with K237L, K241S, E288N, Y438E
# light: not shown
# notes: EU numbering; copies: 2 + 2
# B42: IgG1-F904 (antibody)
# heavy: B1 heavy with K237L, K241S, E288N, N317D, G318I
# light: not shown
# notes: EU numbering; copies: 2 + 2
# Target: T1, soluble human FcRn complexed with β2-microglobulin (human, UniProt P61769 21-119, limits assumed)
# T1 construct: also called hFcRn
# Assay: Biacore SPR, pH 7.0;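 also: test antibodies captured on a Protein L chip with human FcRn flowed over as analyte, KD obtained as the ratio of dissociation to association rate constants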
# Method: A kinetic analysis of binding between human FcRn and the aforementioned antibodies was carried out using the BIACORE™ T100 or T200 surface plasmon resonance system (GE Healthcare). The antibodies being tested were captured on the CM4 Sensor Chip (GE Healthcare) on which a suitable amount of Protein L (ACTIGEN® protein (Alltech)) was suitably immobilized by amine coupling. Next, diluted human FcRn and a running buffer used as a blank were injected to allow the human FcRn to interact with the antibody captured on the sensor chip. A buffer consisting of 50 mmol/L sodium phosphate, 150 mmol/L NaCl and 0.05% (w/v) polysorbate 20 (Tween 20®) (pH 7.0 or pH 7.4) was used for the running buffer, and each buffer was also used to dilute the human FcRn. 10 mmol/L glycine-HCl (pH 1.5) was used to regenerate the sensor chip. All measurements of binding were carried out at 25° C. The KD(M) of each antibody to human FcRn was calculated based on kinetics parameters, i.e., the association rate constant ka (1/Ms) and the dissociation rate constant kd (1/s) calculated from a sensorgram obtained by the measurement. The BIACORE™ T100 or T200 Evaluation Software (GE Healthcare) was used to calculate each parameter.
row,Kd [nM],Binder
1,130,B1
2,120,B2
3,97,B3
4,920,B4
5,220,B5
6,110,B6
7,150,B7
8,21,B8
9,230,B9
10,98,B10
11,130,B11
12,110,B12
13,150,B13
14,400,B14
15,390,B15
16,140,B16
17,250,B17
18,20,B18
19,130,B19
20,230,B20
21,150,B21

row,Kd [nM],Binder
1,280,B22
2,220,B23
3,480,B24
4,120,B25
5,170,B26
6,130,B27
7,92,B28
8,120,B29
9,480,B30
10,130,B31
11,210,B32
12,190,B33
13,250,B34
14,71,B35
15,310,B36
16,130,B37
17,170,B38
18,170,B39
19,130,B40
20,830,B41
21,100,B42
